{"source": "paper PMC4544033", "about": "“Real-time analysis of epithelial-mesenchymal transition using fluorescent single-domain antibodies” (Scientific Reports, 2015)", "key": {"[1]": {"biological_target": "endogenous vimentin (human cell lines) (human (endogenous in HeLa, HEK293T, A549, MDA-MB-231)) (UniProt P08670)", "sequence (P08670 whole entry)": "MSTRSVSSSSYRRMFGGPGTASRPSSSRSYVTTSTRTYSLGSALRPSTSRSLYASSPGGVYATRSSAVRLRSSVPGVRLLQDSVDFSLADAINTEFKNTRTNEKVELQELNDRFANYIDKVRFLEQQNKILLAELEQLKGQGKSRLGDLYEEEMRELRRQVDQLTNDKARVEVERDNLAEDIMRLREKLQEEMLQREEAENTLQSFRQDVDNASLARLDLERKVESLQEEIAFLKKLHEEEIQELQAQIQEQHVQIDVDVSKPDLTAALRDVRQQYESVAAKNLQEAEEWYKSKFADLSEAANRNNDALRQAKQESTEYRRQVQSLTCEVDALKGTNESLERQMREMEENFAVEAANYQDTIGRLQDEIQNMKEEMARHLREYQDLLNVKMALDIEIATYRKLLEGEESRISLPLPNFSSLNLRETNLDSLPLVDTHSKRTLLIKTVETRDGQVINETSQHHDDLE"}, "[2]": {"biological_target": "T1, endogenous vimentin (MDCK cells) (Canis lupus familiaris, UniProt A0A8C0N8E3)", "T1 construct": "vimentin, endogenous in MDCK cells; source: endogenous, MDCK lysate; fixed MDCK cells", "T1 sequence (A0A8C0N8E3 whole entry)": "as the sequence (P08670 whole entry) above, with A21G, S27T, V60A, N201S, E239D, E251D, V258M, T317N, S412A counted along it", "assay": "pull-down; nanobodies covalently coupled to agarose (NHS-Sepharose) beads incubated with soluble protein fractions of cell lines (HeLa, MDCK, A549 or HEK293T), 16 h at 4 °C; immunoblot with anti-vimentin IgG", "conditions": "one partner purified"}, "[3]": {"biological_target": "T2, vimentin rod domain fused to GFP (Homo sapiens, UniProt P08670)", "T2 construct": "vimentin central helical rod domain, aa 96-407; also called central helical rod domain (aa 96-407); source: HEK293T, transfected, in lysate", "T2 sequence (P08670 96-407)": "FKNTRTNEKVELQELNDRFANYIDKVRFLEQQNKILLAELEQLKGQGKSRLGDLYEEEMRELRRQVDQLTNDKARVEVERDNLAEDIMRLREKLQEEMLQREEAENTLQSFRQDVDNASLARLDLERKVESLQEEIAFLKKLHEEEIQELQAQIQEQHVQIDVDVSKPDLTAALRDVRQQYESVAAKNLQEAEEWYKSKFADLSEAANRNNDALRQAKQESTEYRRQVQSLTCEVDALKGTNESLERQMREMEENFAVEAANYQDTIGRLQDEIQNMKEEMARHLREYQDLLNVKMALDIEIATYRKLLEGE", "assay": "pull-down; immobilized nanobodies incubated with lysates of HEK293T cells transfected with GFP fusions of vimentin or its domains; immunoblot with anti-GFP antibody", "conditions": "one partner purified"}, "[4]": {"biological_target": "T1, endogenous vimentin (MDCK cells)", "assay": "immunostaining of cells or tissue; fixed (4% PFA), permeabilised MDCK, HeLa and MDA-MB-231 cells; ATTO488-labeled nanobodies 10 ug/ml in 3% BSA in PBS, 16 h at 4 °C; compared or co-stained with an anti-vimentin IgG", "conditions": "one partner purified"}, "[5]": {"biological_target": "T3, GFP-labeled vimentin (Homo sapiens, UniProt P08670)", "T3 construct": "vimentin, full length; Expression constructs are described in the Supplementary methods; also called GFP-VIM; eGFP-Vimentin; source: HEK293T, transfected, in lysate (soluble protein fraction)", "T3 sequence (P08670 whole entry)": "as the sequence (P08670 whole entry) above", "assay": "BLI; fiber optic sensors with immobilized VB3 and VB6; serial dilutions of the soluble protein fraction of HEK293T cells comprising GFP-VIM or GFP", "conditions": "one partner purified"}, "[6]": {"biological_target": "T4, purified vimentin-His6 (Homo sapiens, UniProt P08670)", "T4 construct": "vimentin, full length; Antigen of immunisation, biopanning and phage ELISA; details in the Supplementary methods; also called recombinant vimentin; full-length vimentin", "T4 sequence (P08670 whole entry)": "as above", "assay": "ELISA; solid-phase phage ELISA of 47 single clones after two cycles of biopanning against full-length vimentin", "conditions": "one partner purified"}}, "data": [{"binder": "VB3 nanobody (VHH, By its hallmark residues derived from a heavy-chain-only antibody; Used immobilised on BLI sensors and covalently coupled to NHS-Sepharose; Construct and purification details are in the Supplementary methods; also called Nb VB3; source: E. coli, recombinantly expressed and purified) VHH: QVQLVESGGGSVQAGDSLRLSCAASGNTFSIKVMGWYRQAPGKQRELVAVSTNSGASVNYANSVKGRFTISIDSVKKTTYLQMNSLKPEDTAVYFCNAYDGRYEDYYGQGTQVTVSS", "values": [{"measurement": "FRAP in HeLa cells: half time of fluorescence recovery of the chromobody", "setting": "[1]", "result": 4.3, "unit": "s"}, {"measurement": "FRAP in HeLa cells: total fluorescence recovery of the chromobody in the photobleached region", "setting": "[1]", "result": 58.4, "unit": "%"}, {"measurement": "binding result", "setting": "[2]", "result": "binds"}, {"measurement": "binding result", "setting": "[3]", "result": "binds"}]}, {"binder": "VB6 nanobody coupled to ATTO488 (VHH, also called VB6_(ATTO488); source: E. coli, purified, chemically coupled to ATTO488 NHS-ester) VHH: QVQLVESGGGLVQSGGSLTLTCAASGFTFSAASMRWVRQVPGKGLEWVATIDGTGANSYYSESAKGRFTISRDNARNTLRLQMNNLKPDDTAVYYCANFGRNYWGKGTQVTVSS", "values": [{"measurement": "binding result", "setting": "[4]", "result": "binds"}]}, {"binder": "VB6 nanobody (VHH, Single-domain antibody; Used immobilised on BLI sensors and covalently coupled to NHS-Sepharose; Construct details are in the Supplementary methods; also called Nb VB6; source: E. coli, recombinantly expressed and purified) VHH: QVQLVESGGGLVQSGGSLTLTCAASGFTFSAASMRWVRQVPGKGLEWVATIDGTGANSYYSESAKGRFTISRDNARNTLRLQMNNLKPDDTAVYYCANFGRNYWGKGTQVTVSS", "values": [{"measurement": "Kd", "setting": "[5]", "result": 37, "unit": "nM"}, {"measurement": "koff", "setting": "[5]", "result": 0.0176, "unit": "s⁻¹"}, {"measurement": "kon", "setting": "[5]", "result": 475000, "unit": "M⁻¹ s⁻¹"}]}, {"binder": "VE3, phage-displayed clone (VHH, derived from a heavy-chain-only antibody) VHH: QVQLVESGGGLVQPGGSLRLSCAASGSTFRIRTMGWYRQAPGKQRELVAVSTNSGGSVNYADSVKGRFTISIDSVKKTTDLQMNSLKPEDTAVYYCNAYDSDYLDYYGQGTQVTVSS", "values": [{"measurement": "binding result", "setting": "[6]", "result": "binds"}]}, {"binder": "VG1, phage-displayed clone (VHH, derived from a heavy-chain-only antibody) VHH: DVQLVESGGGLVQAGGSLKLSCKASGSTYSIHVYGWYRQAPGKQRELVAVSTNSGASVNYANSVKGRFTISIDSVKKTTYLQMNSLKPEDTAVYFCNAYDGRYEDYYGQGTQVTVSS", "values": [{"measurement": "binding result", "setting": "[6]", "result": "binds"}]}, {"binder": "VF6, phage-displayed clone (VHH, derived from a heavy-chain-only antibody) VHH: DVQLVESGGGLVEAGGSLRLSCAASGRTFSPYVMGWYRQAPGNQRELVAVSTNSGASVNYANSVKGRFTISIDSVKKTTYLQMNSLKPEDTAVYFCNAYDGRYEDYYGQGTQVTVSS", "values": [{"measurement": "binding result", "setting": "[6]", "result": "binds"}]}, {"binder": "VC4, phage-displayed clone (VHH, VH domain derived from a conventional IgG by its hallmark residues) VHH: QVQLVESGGGLVQPGGSLRLSCLASGFSFGSYRMHWVRQAPGKGLEWVSGISSGGGTTYYADSVKGRFTISRDNAKNMLYLQMNNLQPEDTAVYYCLGGDWADWGQGTQVTVSS", "values": [{"measurement": "binding result", "setting": "[6]", "result": "binds"}]}, {"binder": "VG4, phage-displayed clone (VHH, VH domain derived from a conventional IgG by its hallmark residues) VHH: QVQLVESGGGLVQPGGSLRLSCVASGFTFSDYWMYWVRQAPGKGLEWVSGISPGGTTTYADSVKGRFTTSRDNTRNTLYLQMNELKPEDTAVYYCAKDLNWVDSDDYWGRGTQVTVSS", "values": [{"measurement": "binding result", "setting": "[6]", "result": "binds"}]}, {"binder": "VH3, phage-displayed clone (VHH, VH domain derived from a conventional IgG by its hallmark residues) VHH: QVQLVESGGGLAQPGGSLRLSCAASGFTFSSYAMSWVRQAPGKGLEWVSGITSGGSSTYYASSVKGRFTISRDNTKNTLYLQMDNLKSDDTAVYYCAKAWGSASSSRGQGTQVTVSS", "values": [{"measurement": "binding result", "setting": "[6]", "result": "binds"}]}]}
